Laboratory results taken from patent US20240124590A1 (ULTRAHUMAN EIGHT, published 2024).
Substitutions are numbered along the chain they refer to. Read-outs that look alike come from different tables or passages of the source. Each block holds one binder with its values, some of them ahead of it.

Key:
[1] = molecular target: T1, cynomolgus monkey PD1 human Fc tagged recombinant protein (cynomolgus monkey, UniProt Q15116 25-170 (human entry), limits assumed); assay: direct ELISA, IgG1null on coated PD1-Fc
T1 construct: also called cyPD1-Fc; cyPD-1-Fc; not shown: human Fc tag
T1 chain: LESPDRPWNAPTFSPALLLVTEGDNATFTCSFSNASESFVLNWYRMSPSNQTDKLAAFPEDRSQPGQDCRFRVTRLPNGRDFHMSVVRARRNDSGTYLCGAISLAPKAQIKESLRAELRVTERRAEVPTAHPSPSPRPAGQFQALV
Description: (§1) Binding and cross-reactivity of the lead panel to the recombinant proteins was initially assessed by binding ELISA. The human PD1 human Fc tagged recombinant protein and the cynomolgus monkey PD1 human Fc tagged recombinant protein were coated to the surface of MaxiSorp™ flat-bottom 96 well plate at 1 μg/ml. […] The Fabs were detected using mouse anti-c-myc antibody followed by donkey anti-mouse IgG conjugated to horseradish peroxidase. The IgGs were detected using the mouse anti-human IgG conjugated to horseradish peroxidase. Binding signals were visualized with 3,3′,5,5′-Tetrannethylbenzidine Substrate Solution (TMB) and the absorbance measured at 450 nm.
(§2) The purified IgGs described above were then tested for binding to human and cyno PD1-Fc in direct titration ELISA format. […] As the ELISA EC50 values for directly binding IgGs are strongly influenced by avidity, rather than true 1:1 binding affinity, we then proceeded to perform higher-sensitivity, solution-phase epitope competition and Biacore binding affinity determinations, as outlined below.

[2] = molecular target: T2, human PD1 human Fc tagged recombinant protein (human, UniProt Q15116 25-170, limits assumed); assay: direct ELISA, IgG1null on coated PD1-Fc
T2 construct: also called huPD1-Fc; huPD-1-Fc; not shown: human Fc tag
T2 sequence (Q15116 25-170 limits assumed): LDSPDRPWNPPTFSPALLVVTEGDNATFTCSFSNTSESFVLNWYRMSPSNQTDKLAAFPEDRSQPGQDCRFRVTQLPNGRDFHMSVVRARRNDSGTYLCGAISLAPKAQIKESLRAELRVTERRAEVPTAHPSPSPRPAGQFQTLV
Description: as §1, §2

[3] = molecular target: human PD1 expressed on cells (human, UniProt Q15116 25-288); assay: cell-based or functional assay
human PD1 expressed on cells, sequence (Q15116 25-288 limits assumed): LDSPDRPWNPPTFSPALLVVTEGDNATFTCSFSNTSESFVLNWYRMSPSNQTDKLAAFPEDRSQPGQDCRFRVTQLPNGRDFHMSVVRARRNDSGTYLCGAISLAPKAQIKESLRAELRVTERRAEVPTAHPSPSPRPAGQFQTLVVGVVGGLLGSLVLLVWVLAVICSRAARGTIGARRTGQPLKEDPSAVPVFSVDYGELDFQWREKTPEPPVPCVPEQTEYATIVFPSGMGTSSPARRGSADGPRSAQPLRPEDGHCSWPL

[4] = molecular target: T3, human KDR (VEGFR2) on cells (human, UniProt P35968 20-1356); assay: cell microarray re-array, transfected HEK293
T3 construct: Transfected HEK293 cells (arrays, flow cytometry) and human VEGFR2 reporter cells
T3 sequence (P35968 20-1356 limits assumed): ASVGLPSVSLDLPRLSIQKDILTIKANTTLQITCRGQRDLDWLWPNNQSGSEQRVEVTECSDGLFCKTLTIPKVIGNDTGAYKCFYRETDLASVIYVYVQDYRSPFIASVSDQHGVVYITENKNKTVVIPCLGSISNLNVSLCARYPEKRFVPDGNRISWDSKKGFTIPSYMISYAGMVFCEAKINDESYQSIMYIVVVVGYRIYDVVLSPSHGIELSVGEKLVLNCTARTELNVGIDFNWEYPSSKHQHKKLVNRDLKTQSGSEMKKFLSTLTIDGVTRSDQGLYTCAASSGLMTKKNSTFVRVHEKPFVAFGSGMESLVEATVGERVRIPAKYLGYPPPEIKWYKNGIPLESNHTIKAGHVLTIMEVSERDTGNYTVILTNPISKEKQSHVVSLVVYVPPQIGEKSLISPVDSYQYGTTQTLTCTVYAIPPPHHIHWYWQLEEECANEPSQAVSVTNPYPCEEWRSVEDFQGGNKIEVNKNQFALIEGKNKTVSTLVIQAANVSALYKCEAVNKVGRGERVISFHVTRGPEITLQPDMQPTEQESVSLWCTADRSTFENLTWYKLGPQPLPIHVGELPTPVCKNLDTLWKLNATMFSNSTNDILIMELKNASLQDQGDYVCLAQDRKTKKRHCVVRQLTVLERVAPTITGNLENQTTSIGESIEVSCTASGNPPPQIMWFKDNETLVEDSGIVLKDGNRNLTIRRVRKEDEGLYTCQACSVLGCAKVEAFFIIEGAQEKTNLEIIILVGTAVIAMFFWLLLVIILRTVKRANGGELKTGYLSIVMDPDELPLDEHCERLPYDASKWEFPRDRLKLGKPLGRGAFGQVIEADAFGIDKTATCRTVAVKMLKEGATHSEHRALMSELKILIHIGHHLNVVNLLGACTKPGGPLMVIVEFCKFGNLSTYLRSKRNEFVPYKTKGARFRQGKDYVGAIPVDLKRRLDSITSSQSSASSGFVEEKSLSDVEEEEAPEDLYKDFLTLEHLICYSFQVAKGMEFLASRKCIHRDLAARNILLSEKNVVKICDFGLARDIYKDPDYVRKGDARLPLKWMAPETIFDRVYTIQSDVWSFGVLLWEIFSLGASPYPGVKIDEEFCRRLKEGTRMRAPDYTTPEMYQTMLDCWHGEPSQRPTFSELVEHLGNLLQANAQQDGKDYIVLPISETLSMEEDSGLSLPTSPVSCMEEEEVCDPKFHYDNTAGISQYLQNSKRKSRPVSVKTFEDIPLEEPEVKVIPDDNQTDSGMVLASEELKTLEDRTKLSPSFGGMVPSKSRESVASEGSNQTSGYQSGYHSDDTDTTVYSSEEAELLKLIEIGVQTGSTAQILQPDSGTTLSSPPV
Description: (§3) Antibody binding was detected using AF647 fluorescent secondary anti-human IgG1 antibody. Primary hits (duplicate spots) were identified by analysing fluorescence (AF647 and ZsGreen1) on ImageQuant. Vectors encoding all hits were sequenced to confirm their correct identities. […] Slides were analysed as above. Flow cytometry confirmation screen: Expression vectors encoding ZsGreen1 only, or ZsGreen1 and PD1, FZDS, KDR or ULBP2, were transfected into human HEK293 cells. Each live transfectant was incubated with […] of each of the test antibodies and the Isotype control antibody. Cells were washed, and incubated with the same AF647 anti-human IgG Fc detection antibody as used in the cell microarray screens. Cells were again washed, and analysed by flow cytometry using an Accuri flow cytometer (BD). A 7AAD live/dead dye was used to exclude dead cells, and ZsGreen1-positive cells (i.e. transfected cells) were selected for analyses.

[5] = molecular target: T4, human ULBP2 (UL16 binding protein 2) on transfected HEK293 cells (human, UniProt Q9BZM5 26-217); assay: cell microarray re-array, transfected HEK293
T4 sequence: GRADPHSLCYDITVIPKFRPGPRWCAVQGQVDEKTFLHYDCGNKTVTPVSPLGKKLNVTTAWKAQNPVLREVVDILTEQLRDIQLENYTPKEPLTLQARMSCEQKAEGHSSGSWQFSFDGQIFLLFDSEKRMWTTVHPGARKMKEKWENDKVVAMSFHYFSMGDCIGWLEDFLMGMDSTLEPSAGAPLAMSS
Description: as §3

[6] = molecular target: T5, human FZD5 (frizzled class receptor 5) on transfected HEK293 cells (human, UniProt Q13467 27-585); assay: cell microarray re-array, transfected HEK293
T5 construct: also called FZDS; FZ5
Description: as §3

[7] = molecular target: T6, recombinant ectodomain of human VEGFR2 (human, UniProt P35968 20-764); assay: direct ELISA
T6 construct: whole entry named

[8] = molecular target: T1, cynomolgus monkey PD1 human Fc tagged …; assay: direct ELISA, IgG1null on coated PD1-Fc
Description: as §1, §2

[9] = molecular target: T2, human PD1 human Fc tagged recombinant …; assay: direct ELISA, IgG1null on coated PD1-Fc; remark: listed apart in the source
Description: as §1, §2

- EC50 [1]: 0.0771 nM
- EC50 [2]: 0.134 nM
- EC50 (ng/ml), IgG1null blockade of human PD1/PD-L1 [3]: 127 ng/mL
- binding result [4]: no binding (tested: 5 µg/ml)
- binding result [5]: no binding (tested: 5 µg/ml)
- binding result [6]: no binding (tested: 5 µg/ml)
- binding result [7]: no binding
B1: IgG1-08 (antibody, V domains shown)
VH: EVQLVESGGGLVQPGGSLRLSCAASGFTFSSYLMSWVRQAPGKGLEWVATISGGGSEKYYVDSVKGRFTISRDNAKNSLYLQMNSLRAEDTAVYYCARQLYGFDYWGQGTLVTVSS
VL: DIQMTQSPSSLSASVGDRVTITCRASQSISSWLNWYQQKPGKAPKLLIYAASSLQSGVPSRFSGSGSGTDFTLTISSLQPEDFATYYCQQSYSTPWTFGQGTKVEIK
notes: Designer; human IgG1null + Ckappa; also called Antibody IgG1-08; MAB08

- EC50 [1]: 0.135 nM
- EC50 [2]: 0.121 nM
- EC50 (ng/ml), IgG1null blockade of human PD1/PD-L1 [3]: 156 ng/mL
- binding result [4]: no binding (tested: 5 µg/ml)
- binding result [5]: no binding (tested: 5 µg/ml)
- binding result [6]: no binding (tested: 5 µg/ml)
- binding result [7]: no binding
B2: IgG1-05 (antibody, V domains shown)
VH: B1 VH with L100V, G102Y
VL: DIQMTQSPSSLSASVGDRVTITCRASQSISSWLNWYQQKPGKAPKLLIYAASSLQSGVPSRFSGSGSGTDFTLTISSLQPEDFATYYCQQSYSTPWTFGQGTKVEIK
notes: Designer; human IgG1null + Ckappa; also called Antibody IgG1-05

- EC50 [8]: 0.104 nM
- EC50 [9]: 0.065 nM
- EC50 (ng/ml), IgG1null blockade of human PD1/PD-L1 [3]: 224 ng/mL
- binding result [4]: no binding (tested: 5 µg/ml)
- binding result [5]: no binding (tested: 5 µg/ml)
- binding result [6]: no binding (tested: 5 µg/ml)
- binding result [7]: no binding
B3: IgG1-06D02 (antibody, V domains shown)
VH: B1 VH with K58T
VL: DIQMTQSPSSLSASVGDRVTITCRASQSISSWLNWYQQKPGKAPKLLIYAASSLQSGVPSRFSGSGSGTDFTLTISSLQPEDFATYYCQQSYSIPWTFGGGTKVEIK
notes: Library-derived; human IgG1null + Ckappa; also called Clone 06D02
